Results published in US20160068605A1.
Where two headings read alike, the source gives them in different places.

Tests used:
[1] = target: IL3RA-PK (CD123 tagged with ProLink) in HEK293 IL3RA-PK/CSF2RB-EA cells (UniProt P26951)
[2] = target: cyno CD123 ECD displayed on pDisplay-transfected cells (cynomolgus monkey); assay: MSD-CAT, cynoCD123 cells, assay-2
[3] = target: endogenous CD123 on human leukaemia cells (OCI-AML5, TF-1) (human) (UniProt P26951); assay: MSD cell binding assay on OCI-AML5 cells (endogenous CD123)
Sequence of endogenous CD123 on human leukaemia cells (OCI-AML5, TF-1) (human) (P26951 19-378): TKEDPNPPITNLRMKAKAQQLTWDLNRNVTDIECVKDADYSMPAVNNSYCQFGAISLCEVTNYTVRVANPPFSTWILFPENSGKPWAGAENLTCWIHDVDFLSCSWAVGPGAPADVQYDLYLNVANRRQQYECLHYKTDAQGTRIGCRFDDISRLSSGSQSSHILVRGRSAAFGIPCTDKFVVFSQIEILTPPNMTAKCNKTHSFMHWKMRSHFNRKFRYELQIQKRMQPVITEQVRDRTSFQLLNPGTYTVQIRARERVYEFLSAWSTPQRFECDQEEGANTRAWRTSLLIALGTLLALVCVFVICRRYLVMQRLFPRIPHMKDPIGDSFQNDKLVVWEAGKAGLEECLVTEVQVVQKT

[4] = target: IL3RA-PK (CD123 tagged with ProLink) in HEK293 IL3RA-PK/CSF2RB-EA cells (UniProt P26951); remark: listed apart in the source
[5] = target: human CD123 SP1 ECD displayed on pDisplay-transfected cells (human) (UniProt P26951); assay: MSD-CAT, hCD123 cells, assay-2
Sequence of human CD123 SP1 ECD displayed on pDisplay-transfected cells (human) (P26951 20-305): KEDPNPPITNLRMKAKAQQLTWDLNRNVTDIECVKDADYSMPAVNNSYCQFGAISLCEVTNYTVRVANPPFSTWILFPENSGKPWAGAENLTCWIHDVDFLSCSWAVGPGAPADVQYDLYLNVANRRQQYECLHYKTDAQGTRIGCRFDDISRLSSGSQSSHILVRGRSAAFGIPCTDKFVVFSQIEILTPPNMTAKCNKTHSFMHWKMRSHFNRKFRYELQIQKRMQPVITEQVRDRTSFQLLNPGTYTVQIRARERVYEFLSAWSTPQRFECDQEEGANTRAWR

Sequence of cyno CD123 ECD displayed on pDisplay-transfected cells (cynomolgus monkey) (chain, as listed by the source): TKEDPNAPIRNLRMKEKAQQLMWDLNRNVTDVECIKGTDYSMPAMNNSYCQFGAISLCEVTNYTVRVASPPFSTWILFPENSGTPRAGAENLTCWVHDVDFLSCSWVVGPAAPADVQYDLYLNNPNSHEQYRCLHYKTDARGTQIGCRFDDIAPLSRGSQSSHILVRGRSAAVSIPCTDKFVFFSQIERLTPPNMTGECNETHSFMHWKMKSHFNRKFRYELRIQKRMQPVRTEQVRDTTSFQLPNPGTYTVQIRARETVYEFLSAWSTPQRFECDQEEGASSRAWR

- IC50 (read off the curve): IL-3-induced CD123/CD131 heteromerization (RLU) [1]: 0.2 µg/mL
- Kd [2]: 57 pM
- EC50 (read off the curve) [3]: 7 µg/mL
- IC50 (read off the curve): IL-3-induced CD123/CD131 heteromerization (RLU) [4]: 0.05 µg/mL
- Kd [5]: 154 pM
B1: 7G3 (antibody, from another filing, V domains shown)
VH: EVQLQQSGPELVKPGASVKMSCKASGYTFTDYYMKWVKQSHGKSLEWIGDIIPSNGATFYNQKFKGKATLTVDRSSSTAYMHLNSLTSEDSAVYYCTRSHLLRASWFAYWGQGTLVTVSA
VL: DFVMTQSPSSLTVTAGEKVTMSCKSSQSLLNSGNQKNYLTWYLQKPGQPPKLLIYWASTRESGVPDRFTGSGSGTDFTLTISSVQAEDLAVYYCQNDYSYPYTFGGGTKLEIKR
